Experimental data taken from publication PMC9482650, “Quantitative fragmentomics allow affinity mapping of interactomes” (Nature Communications, 2022).

T1: MPDZ_5, O75970
T1 sequence (O75970 695-796, limits assumed, looked up): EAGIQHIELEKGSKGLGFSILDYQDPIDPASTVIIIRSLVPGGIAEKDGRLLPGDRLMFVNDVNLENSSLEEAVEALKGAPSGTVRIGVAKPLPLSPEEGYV

T2: GRIP1_3, Q9Y3R0
T2 sequence (Q9Y3R0 247-346, limits assumed, looked up): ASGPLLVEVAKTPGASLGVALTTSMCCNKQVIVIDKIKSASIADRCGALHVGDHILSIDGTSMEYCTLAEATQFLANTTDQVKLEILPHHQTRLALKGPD

T3: DVL3, Q92997
T3 sequence (Q92997 244-331, limits assumed, looked up): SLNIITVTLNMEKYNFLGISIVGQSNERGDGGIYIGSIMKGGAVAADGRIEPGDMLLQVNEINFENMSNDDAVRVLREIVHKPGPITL

T4: LNX2_2, Q8N448
T4 sequence (Q8N448 334-432, limits assumed, looked up): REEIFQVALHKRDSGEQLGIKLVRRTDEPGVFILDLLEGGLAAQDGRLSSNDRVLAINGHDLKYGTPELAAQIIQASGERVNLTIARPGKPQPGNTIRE

T5: MPDZ_10, O75970
T5 sequence (O75970 1624-1722, limits assumed, looked up): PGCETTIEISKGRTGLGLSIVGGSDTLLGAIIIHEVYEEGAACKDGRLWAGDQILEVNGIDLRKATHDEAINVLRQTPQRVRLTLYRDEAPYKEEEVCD

T6: PARD3B_1, Q8TEW8
T6 sequence (Q8TEW8 196-299, limits assumed, looked up): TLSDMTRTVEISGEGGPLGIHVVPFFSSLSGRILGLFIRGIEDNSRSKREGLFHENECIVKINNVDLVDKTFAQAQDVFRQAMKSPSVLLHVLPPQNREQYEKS

T7: SHANK1, Q9Y566
T7 sequence (Q9Y566 658-767, limits assumed, looked up): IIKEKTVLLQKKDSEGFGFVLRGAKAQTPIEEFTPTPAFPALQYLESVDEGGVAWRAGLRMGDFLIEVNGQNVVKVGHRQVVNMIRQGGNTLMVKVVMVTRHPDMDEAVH

T8: APBA3_1, O96018
T8 sequence (O96018 389-490, limits assumed, looked up): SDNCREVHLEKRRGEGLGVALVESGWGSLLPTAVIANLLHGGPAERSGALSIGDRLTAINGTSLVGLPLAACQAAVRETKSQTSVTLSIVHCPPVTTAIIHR

T9: PDZD7_3, Q9H5P4
T9 sequence (Q9H5P4 857-944, limits assumed, looked up): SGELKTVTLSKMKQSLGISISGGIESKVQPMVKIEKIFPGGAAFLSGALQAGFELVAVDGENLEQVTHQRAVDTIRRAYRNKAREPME

T10: SNTA1, Q13424
T10 sequence (Q13424 82-180, limits assumed, looked up): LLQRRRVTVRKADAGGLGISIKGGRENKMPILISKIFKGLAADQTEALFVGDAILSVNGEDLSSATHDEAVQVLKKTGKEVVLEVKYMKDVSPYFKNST

T11: PCLO, Q9Y6V0
T11 sequence (Q9Y6V0 4491-4600, limits assumed, looked up): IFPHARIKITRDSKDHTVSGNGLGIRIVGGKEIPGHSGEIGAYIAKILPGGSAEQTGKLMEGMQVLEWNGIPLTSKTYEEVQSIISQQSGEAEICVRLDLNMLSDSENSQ

T12: RADIL, Q96JH8
T12 sequence (Q96JH8 971-1071, limits assumed, looked up): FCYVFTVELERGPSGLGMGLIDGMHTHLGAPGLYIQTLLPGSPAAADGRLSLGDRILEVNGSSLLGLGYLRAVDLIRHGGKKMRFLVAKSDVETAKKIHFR

T13: SNTG1, Q9NSN8
T13 sequence (Q9NSN8 52-150, limits assumed, looked up): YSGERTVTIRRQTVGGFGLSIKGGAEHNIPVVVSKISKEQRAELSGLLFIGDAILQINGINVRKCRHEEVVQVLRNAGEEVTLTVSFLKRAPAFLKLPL


What was measured:
Assay in all cases: holdup assay
Set-up in all cases: key: below the threshold = too weak to quantify, mostly under pKd 3.1 to 4
Settings in all cases: plain residues with an end cap or a label only (N-terminal biotin on a linker: ado-ado)
[1] = biological target: FRMPD2_3, Q68DX3
[2] = biological target: T1, MPDZ_5, O75970
[3] = biological target: T2, GRIP1_3, Q9Y3R0
[4] = biological target: T3, DVL3, Q92997
[5] = biological target: CASK, O14936
[6] = biological target: GRID2IP_1, A4D2P6
[7] = biological target: T4, LNX2_2, Q8N448
[8] = biological target: T5, MPDZ_10, O75970
[9] = biological target: IL16_1, Q14005
[10] = biological target: T6, PARD3B_1, Q8TEW8
[11] = biological target: MAGI1_2, Q96QZ7
[12] = biological target: T7, SHANK1, Q9Y566
[13] = biological target: T8, APBA3_1, O96018
[14] = biological target: T9, PDZD7_3, Q9H5P4
[15] = biological target: T10, SNTA1, Q13424
[16] = biological target: T11, PCLO, Q9Y6V0
[17] = biological target: T12, RADIL, Q96JH8
[18] = biological target: T13, SNTG1, Q9NSN8
[19] = biological target: PDZRN4_1, Q6ZMN7
[20] = biological target: LNX1_1, Q8TBB1
[21] = biological target: Inadl_3, Q8NI35
[22] = biological target: LIMK2, P53671
[23] = biological target: MAGI2_4, Q86UL8
[24] = biological target: DLG4_2, P78352
Chain of DLG4_2, P78352 (P78352 155-259): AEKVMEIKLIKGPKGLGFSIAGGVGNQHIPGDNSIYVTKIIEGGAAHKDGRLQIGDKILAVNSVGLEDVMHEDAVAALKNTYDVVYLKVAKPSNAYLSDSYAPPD

Chain of IL16_1, Q14005 (Q14005 210-306): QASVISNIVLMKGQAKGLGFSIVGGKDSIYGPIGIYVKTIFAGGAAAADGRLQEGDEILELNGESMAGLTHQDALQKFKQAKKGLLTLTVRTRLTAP
Chain of LIMK2, P53671 (P53671 143-248): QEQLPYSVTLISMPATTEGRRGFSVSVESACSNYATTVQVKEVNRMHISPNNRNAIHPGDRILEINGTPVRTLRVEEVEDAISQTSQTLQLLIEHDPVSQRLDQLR
Chain of LNX1_1, Q8TBB1 (Q8TBB1 261-371): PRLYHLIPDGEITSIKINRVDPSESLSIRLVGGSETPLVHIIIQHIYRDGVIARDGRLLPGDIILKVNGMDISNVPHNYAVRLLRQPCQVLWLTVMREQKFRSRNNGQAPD
Chain of MAGI2_4, Q86UL8 (Q86UL8 772-865): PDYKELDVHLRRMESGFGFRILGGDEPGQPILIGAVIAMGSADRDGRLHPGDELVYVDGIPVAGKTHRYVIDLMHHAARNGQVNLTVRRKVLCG
Chain of MAGI1_2, Q96QZ7 (Q96QZ7 456-580): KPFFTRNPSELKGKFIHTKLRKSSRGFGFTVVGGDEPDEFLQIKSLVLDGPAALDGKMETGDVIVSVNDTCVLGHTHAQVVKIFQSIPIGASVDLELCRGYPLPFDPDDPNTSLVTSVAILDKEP
Chain of Inadl_3, Q8NI35 (Q8NI35 359-469): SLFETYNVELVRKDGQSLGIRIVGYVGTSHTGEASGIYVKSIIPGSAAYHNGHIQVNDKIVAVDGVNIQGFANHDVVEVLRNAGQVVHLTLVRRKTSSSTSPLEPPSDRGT
Chain of GRID2IP_1, A4D2P6 (A4D2P6 1-87): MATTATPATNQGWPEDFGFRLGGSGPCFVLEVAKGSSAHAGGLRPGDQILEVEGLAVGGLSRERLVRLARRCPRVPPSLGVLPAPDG
Chain of PDZRN4_1, Q6ZMN7 (Q6ZMN7 213-318): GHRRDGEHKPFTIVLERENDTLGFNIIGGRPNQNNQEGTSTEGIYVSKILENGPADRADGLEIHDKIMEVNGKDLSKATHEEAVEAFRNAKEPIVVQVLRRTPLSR
Chain of CASK, O14936 (O14936 487-570): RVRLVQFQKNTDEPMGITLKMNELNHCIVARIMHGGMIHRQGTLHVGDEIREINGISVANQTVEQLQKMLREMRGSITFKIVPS
Chain of FRMPD2_3, Q68DX3 (Q68DX3 1073-1166): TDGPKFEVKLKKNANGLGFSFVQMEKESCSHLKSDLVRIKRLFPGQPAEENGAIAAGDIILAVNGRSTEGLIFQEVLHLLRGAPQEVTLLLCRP

pKd [1]	pKd [2]	pKd [3]	pKd [4]	pKd [5]	pKd [6]	pKd [7]	pKd [8]	pKd [9]	pKd [10]	pKd [11]	pKd [12]	pKd [13]	pKd [14]	pKd [15]	pKd [16]	pKd [17]	pKd [18]	pKd [19]	pKd [20]	Binder	other results
below the threshold	below the threshold	below the threshold	below the threshold	below the threshold	below the threshold	4.15	3.62	below the threshold	below the threshold	3.87	below the threshold	below the threshold	4.28	3.8	below the threshold	below the threshold	3.63	4.23	below the threshold	GSSSKEGTSV [RRBP1, Q9P2E9]	pKd [21]: below the threshold; pKd [22]: below the threshold; pKd [23]: 4.32; pKd [24]: 4.27
below the threshold	below the threshold	below the threshold	below the threshold	below the threshold	below the threshold	below the threshold	below the threshold	below the threshold	below the threshold	below the threshold	below the threshold	below the threshold	below the threshold	below the threshold	below the threshold	below the threshold	below the threshold	below the threshold	below the threshold	ADRDHASDQL [CTBP1, Q13363]	pKd [21]: below the threshold; pKd [22]: below the threshold; pKd [23]: below the threshold; pKd [24]: below the threshold
